Laboratory results from article PMC6210652, “Virus Sensor RIG-I Represses RNA Interference by Interacting with TRBP through LGP2 in Mammalian Cells”.

Key:
Assay in all cases: EMSA; 3 uM protein, 0.5 nM siRNA, 1.5 mM Mg2+; 20 mM Tris pH 8.0, 1.5 mM MgCl2, 50 mM NaCl, 1.5 mM DTT, 100 ng/uL sonicated salmon sperm DNA, 5% glycerol, 0.4 U/mL RNasin; 30 min on ice; 9% PAGE in 0.25x TBE
Conditions in all cases: protein: recombinant; label: 5'-32P on guide strand; siRNA duplex 21-nt strands, 19 bp, 3' overhangs 2 nt on both strands
MDA5 = target: T1, MDA5 (UniProt Q9BYX4 1-1025)
T1 sequence: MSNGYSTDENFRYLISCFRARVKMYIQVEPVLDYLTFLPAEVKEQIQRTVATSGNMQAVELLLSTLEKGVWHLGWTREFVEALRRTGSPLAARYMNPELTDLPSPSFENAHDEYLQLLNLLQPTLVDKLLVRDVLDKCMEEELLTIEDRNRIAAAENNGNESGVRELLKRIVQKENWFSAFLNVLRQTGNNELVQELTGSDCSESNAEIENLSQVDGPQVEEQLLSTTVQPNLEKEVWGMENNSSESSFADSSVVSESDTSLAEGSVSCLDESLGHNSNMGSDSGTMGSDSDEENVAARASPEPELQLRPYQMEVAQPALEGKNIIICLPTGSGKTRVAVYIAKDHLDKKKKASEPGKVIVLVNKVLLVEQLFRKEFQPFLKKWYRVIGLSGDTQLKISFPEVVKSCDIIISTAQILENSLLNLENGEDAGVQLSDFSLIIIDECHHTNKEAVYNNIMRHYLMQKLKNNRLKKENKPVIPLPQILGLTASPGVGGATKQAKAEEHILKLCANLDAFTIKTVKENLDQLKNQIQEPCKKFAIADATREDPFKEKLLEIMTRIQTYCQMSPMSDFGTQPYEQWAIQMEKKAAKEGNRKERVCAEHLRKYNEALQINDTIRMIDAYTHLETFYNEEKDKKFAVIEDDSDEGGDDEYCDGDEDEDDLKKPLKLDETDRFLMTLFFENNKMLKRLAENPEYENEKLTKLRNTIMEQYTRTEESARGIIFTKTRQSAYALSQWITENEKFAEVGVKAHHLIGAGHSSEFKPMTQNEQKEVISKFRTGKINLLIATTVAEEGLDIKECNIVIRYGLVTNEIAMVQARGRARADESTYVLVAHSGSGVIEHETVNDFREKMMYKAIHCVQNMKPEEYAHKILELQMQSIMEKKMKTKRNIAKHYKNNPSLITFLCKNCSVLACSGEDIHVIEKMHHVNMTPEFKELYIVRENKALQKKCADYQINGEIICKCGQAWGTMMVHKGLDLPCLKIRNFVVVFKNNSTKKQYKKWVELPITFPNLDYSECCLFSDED

LGP2 = target: T2, LGP2 (UniProt Q96C10 1-678)
T2 sequence: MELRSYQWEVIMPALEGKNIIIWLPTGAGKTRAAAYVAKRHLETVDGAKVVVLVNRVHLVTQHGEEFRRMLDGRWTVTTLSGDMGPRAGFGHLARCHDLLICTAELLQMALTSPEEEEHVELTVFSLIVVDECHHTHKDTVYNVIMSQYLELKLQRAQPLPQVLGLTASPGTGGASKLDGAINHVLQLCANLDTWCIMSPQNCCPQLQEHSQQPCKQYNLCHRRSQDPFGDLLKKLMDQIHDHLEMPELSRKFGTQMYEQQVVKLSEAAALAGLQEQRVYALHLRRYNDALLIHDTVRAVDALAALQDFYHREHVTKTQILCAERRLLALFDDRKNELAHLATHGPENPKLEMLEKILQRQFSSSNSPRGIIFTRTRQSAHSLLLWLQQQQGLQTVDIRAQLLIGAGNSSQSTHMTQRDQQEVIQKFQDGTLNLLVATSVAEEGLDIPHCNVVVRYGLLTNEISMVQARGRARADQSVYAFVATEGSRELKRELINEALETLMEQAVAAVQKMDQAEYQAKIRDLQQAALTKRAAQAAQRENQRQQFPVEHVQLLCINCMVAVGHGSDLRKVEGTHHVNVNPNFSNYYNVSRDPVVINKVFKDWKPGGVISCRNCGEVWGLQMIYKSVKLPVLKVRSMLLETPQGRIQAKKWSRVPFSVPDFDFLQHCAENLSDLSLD

RIG-I = target: T3, RIG-I (UniProt O95786 1-925)
T3 sequence: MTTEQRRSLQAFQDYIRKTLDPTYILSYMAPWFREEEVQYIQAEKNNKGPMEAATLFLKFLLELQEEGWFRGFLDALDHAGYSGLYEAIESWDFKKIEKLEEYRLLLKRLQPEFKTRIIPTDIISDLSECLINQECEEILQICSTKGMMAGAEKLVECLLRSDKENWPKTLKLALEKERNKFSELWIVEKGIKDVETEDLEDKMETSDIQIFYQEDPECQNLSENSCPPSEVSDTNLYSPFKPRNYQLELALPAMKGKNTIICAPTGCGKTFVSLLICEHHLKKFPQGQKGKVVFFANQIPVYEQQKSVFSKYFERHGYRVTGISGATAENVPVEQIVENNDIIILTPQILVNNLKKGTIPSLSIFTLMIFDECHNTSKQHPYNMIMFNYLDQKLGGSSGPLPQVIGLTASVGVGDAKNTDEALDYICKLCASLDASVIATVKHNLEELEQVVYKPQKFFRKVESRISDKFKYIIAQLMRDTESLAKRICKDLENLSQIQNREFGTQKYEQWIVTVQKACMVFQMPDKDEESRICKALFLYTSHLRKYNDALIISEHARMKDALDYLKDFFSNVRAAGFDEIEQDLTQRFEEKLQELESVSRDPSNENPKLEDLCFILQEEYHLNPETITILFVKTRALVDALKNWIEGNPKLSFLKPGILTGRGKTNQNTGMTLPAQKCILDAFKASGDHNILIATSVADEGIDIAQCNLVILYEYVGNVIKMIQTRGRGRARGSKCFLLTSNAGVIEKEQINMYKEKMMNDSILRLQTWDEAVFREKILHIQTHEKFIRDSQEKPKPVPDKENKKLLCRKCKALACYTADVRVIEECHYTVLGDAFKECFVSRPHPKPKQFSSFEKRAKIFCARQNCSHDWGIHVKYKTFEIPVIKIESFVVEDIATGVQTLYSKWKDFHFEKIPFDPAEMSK

B1: siLuc-36 (dsRNA)
RNA 1: UCUUCCAGCGGAUAGAAUGGC
RNA 2: CAUUCUAUCCGCUGGAAGAUG
Question: Does B1 bind (MDA5)?
Answer: no binding

Question: Does B1 bind (LGP2)?
Answer: binds

Question: Does B1 bind (RIG-I)?
Answer: binds
